Assay results: patent US20070020718

Target: T1, F-P564 peptide
T1 chain: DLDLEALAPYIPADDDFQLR

B1: HIF-1alpha specific prolyl-4-hydroxylase-2 (PHD-2) (protein)
chain: MANDSGGPGGPSPSERDRQYCELCGKMENLLRCSRCRSSFYCCKEHQRQDWKKHKLVCQGSEGALGHGVGPHQHSGPAPPAAVPPPRAGAREPRKAAARRDNASGDAAKGKVKAKPPADPAAAASPCRAAAGGQGSAVAAEAEPGKEEPPARSSLFQEKANLYPPSNTPGDALSPGGGLRPNGQTKPLPALKLALEYIVPCMNKHGICVVDDFLGKETGQQIGDEVRALHDTGKFTDGQLVSQKSDSSKDIRGDKITWIEGKEPGCETIGLLMSSMDDLIRHCNGKLGSYKINGRTKAMVACYPGNGTGYVRHVDNPNGDGRCVTCIYYLNKDWDAKVSGGILRIFPEGKAQFADIEPKFDRLLFFWSDRRNPHEVQPAYATRYAITVWYFDADERARAKVKYLTGEKGVRVELNKPSDSVGKDVF
In the case of B1, the “prolyl hydroxylation of F-P564 peptide, mass analysis” value is reported as “the 564th proline group in F-P564 was hydroxylated by the addition of prolyl hydroxylase”.
